Experimental data reported in the supplement of paper PMC5998384.

Assays:
[1] = system: HeLa Kyoto; experiment: solubility in G1/S (NP-40 vs SDS abundance) (log2 ratio); higher = more soluble; conditions: cell cycle stage: G1/S
[2] = system: HeLa Kyoto; experiment: melting temperature (median over replicates), in situ; higher = more thermally stable
[3] = system: HeLa Kyoto; experiment: solubility change mitosis vs G1/S (difference of NP-40 vs SDS log2 ratios) (log2 ratio difference); higher = more soluble in mitosis
[4] = system: HeLa Kyoto; experiment: thermal stability score vs G1/S (z-score of summed log2 fold changes over temperatures); higher = more thermally stable than in G1/S
[5] = cell cycle stage: early G1 (4.5 h after nocodazole release)
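Throughout, for melting temperature (median over replicates), in situ: HeLa Kyoto cells synchronized by double thymidine or nocodazole block, proteins quantified by TMT10plex mass spectrometry, three independent biological replicates.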
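Throughout, for solubility change mitosis vs G1/S (difference of NP-40 vs SDS log2 ratios): synchronized HeLa Kyoto cells (double thymidine block for G1/S, nocodazole release for mitosis), protein amounts in NP-40 versus SDS lysates quantified by mass spectrometry, three biological replicates.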
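Throughout, for solubility in G1/S (NP-40 vs SDS abundance): HeLa Kyoto cells arrested at G1/S by double thymidine block, proteins quantified by TMT10plex mass spectrometry in mild NP-40 versus SDS extracts, three biological replicates.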
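Throughout, for thermal stability score vs G1/S (z-score of summed log2 fold changes over temperatures): synchronized HeLa Kyoto cells, proteins quantified by TMT10plex mass spectrometry, three biological replicates, mitosis taken 0.5 h after nocodazole release, G1/S directly after double thymidine block.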

Row | Sequence | solubility in G1/S (log2) [1] | melting temperature ([2]; cell cycle stage: G1/S) [°C] | melting temperature ([2]; cell cycle stage: mitosis) [°C] | solubility change mitosis (log2) [3] | thermal stability score [4, 5] | thermal stability score ([4]; cell cycle stage: mitosis)
1 | MALKMVKGSIDRMFDKNLQDLVRGIRNHKEDEAKYISQCIDEIKQELKQDNIAVKANAVCKLTYLQMLGYDISWAAFNIIEVMSASKFTFKRIGYLAASQSFHEGTDVIMLTTNQIRKDLSSPSQYDTGVALTGLSCFVTPDLARDLANDIMTLMSHTKPYIRKKAVLIMYKVFLKYPESLRPAFPRLKEKLEDPDPGVQSAAVNVICELARRNPKNYLSLAPLFFKLMTSSTNNWVLIKIIKLFGALTPLEPRLGKKLIEPLTNLIHSTSAMSLLYECVNTVIAVLISLSSGMPNHSASIQLCVQKLRILIEDSDQNLKYLGLLAMSKILKTHPKSVQSHKDLILQCLDDKDESIRLRALDLLYGMVSKKNLMEIVKKLMTHVDKAEGTTYRDELLTKIIDICSQSNYQYITNFEWYISILVELTRLEGTRHGHLIAAQMLDVAIRVKAIRKFAVSQMSALLDSAHLLASSTQRNGICEVLYAAAWICGEFSEHLQEPHHTLEAMLRPRVTTLPGHIQAVYVQNVVKLYASILQQKEQAGEAEGAQAVTQLMVDRLPQFVQSADLEVQERASCILQLVKHIQKLQAKDVPVAEEVSALFAGELNPVAPKAQKKVPVPEGLDLDAWINEPLSDSESEDERPRAVFHEEEQRRPKHRPSEADEEELARRREARKQEQANNPFYIKSSPSPQKRYQDTPGVEHIPVVQIDLSVPLKVPGLPMSDQYVKLEEERRHRQKLEKDKRRKKRKEKEKKGKRRHSSLPTESDEDIAPAQQVDIVTEEMPENALPSDEDDKDPNDPYRALDIDLDKPLADSEKLPIQKHRNTETSKSPEKDVPMVEKKSKKPKKKEKKHKEKERDKEKKKEKEKKKSPKPKKKKHRKEKEERTKGKKKSKKQPPGSEEAAGEPVQNGAPEEEQLPPESSYSLLAENSYVKMTCDIRGSLQEDSQVTVAIVLENRSSSILKGMELSVLDSLNARMARPQGSSVHDGVPVPFQLPPGVSNEAQYVFTIQSIVMAQKLKGTLSFIAKNDEGATHEKLDFRLHFSCSSYLITTPCYSDAFAKLLESGDLSMSSIKVDGIRMSFQNLLAKICFHHHFSVVERVDSCASMYSRSIQGHHVCLLVKKGENSVSVDGKCSDSTLLSNLLEEMKATLAKC [AP3D1] | -0.378 | 50.8 | 50.6 | -0.178 | -1.02 | -1.46
2 | MALKQEMAKSLLKTASLSGRTKLLHQTGLSLYSTSHGFYEEEVKKTLQQFPGGSIDLQKEDNGIGILTLNNPSRMNAFSGVMMLQLLEKVIELENWTEGKGLIVRGAKNTFSSGSDLNAVKSLGTPEDGMAVCMFMQNTLTRFMRLPLISVALVQGWALGGGAEFTTACDFRLMTPESKIRFVHKEMGIIPSWGGTTRLVEIIGSRQALKVLSGALKLDSKNALNIGMVEEVLQSSDETKSLEEAQEWLKQFIQGPPEVIRALKKSVCSGRELYLEEALQNERDLLGTVWGGPANLEAIAKKGKFNK [ECHDC1] | 0.284 | 56.5 | 58.1 | -0.0468 | -1.01 | -1.18
3 | MALLCLDGVFLSSAENDFVHRIQEELDRFLLQKQLSKVLLFPPLSSRLRYLIHRTAENFDLLSSFSVGEGWKRRTVICHQDIRVPSSDGLSGPCRAPASCPSRYHGPRPISNQGAAAVPRGARAGRWYRGRKPDQPLYVPRVLRRQEEWGLTSTSVLKREAPAGRDPEEPGDVGAGDPNSDQGLPVLMTQGTEDLKGPGQRCENEPLLDPVGPEPLGPESQSGKGDMVEMATRFGSTLQLDLEKGKESLLEKRLVAEEEEDEEEVEEDGPSSCSEDDYSELLQEITDNLTKKEIQIEKIHLDTSSFVEELPGEKDLAHVVEIYDFEPALKTEDLLATFSEFQEKGFRIQWVDDTHALGIFPCLASAAEALTREFSVLKIRPLTQGTKQSKLKALQRPKLLRLVKERPQTNATVARRLVARALGLQHKKKERPAVRGPLPP [R3HCC1] | -0.047 | – | 51.1 | -0.0167 | -0.563 | -0.284
4 | MALLCYNRGCGQRFDPETNSDDACTYHPGVPVFHDALKGWSCCKRRTTDFSDFLSIVGCTKGRHNSEKPPEPVKPEVKTTEKKELCELKPKFQEHIIQAPKPVEAIKRPSPDEPMTNLELKISASLKQALDKLKLSSGNEENKKEEDNDEIKIGTSCKNGGCSKTYQGLESLEEVCVYHSGVPIFHEGMKYWSCCRRKTSDFNTFLAQEGCTKGKHMWTKKDAGKKVVPCRHDWHQTGGEVTISVYAKNSLPELSRVEANSTLLNVHIVFEGEKEFDQNVKLWGVIDVKRSYVTMTATKIEITMRKAEPMQWASLELPAAKKQEKQKDATTD [CHORDC1] | 0.0558 | 52 | 52.4 | -0.122 | -0.00128 | 0.22
5 | MALLHSGRVLPGIAAAFHPGLAAAASARASSWWTHVEMGPPDPILGVTEAFKRDTNSKKMNLGVGAYRDDNGKPYVLPSVRKAEAQIAAKNLDKEYLPIGGLAEFCKASAELALGENSEVLKSGRFVTVQTISGTGALRIGASFLQRFFKFSRDVFLPKPTWGNHTPIFRDAGMQLQGYRYYDPKTCGFDFTGAVEDISKIPEQSVLLLHACAHNPTGVDPRPEQWKEIATVVKKRNLFAFFDMAYQGFASGDGDKDAWAVRHFIEQGINVCLCQSYAKNMGLYGERVGAFTMVCKDADEAKRVESQLKILIRPMYSNPPLNGARIAAAILNTPDLRKQWLQEVKVMADRIIGMRTQLVSNLKKEGSTHNWQHITDQIGMFCFTGLKPEQVERLIKEFSIYMTKDGRISVAGVTSSNVGYLAHAIHQVTK [GOT2] | 0.165 | 59.4 | 58.8 | -0.0966 | -1.18 | -2.25
6 | MALLPRALSAGAGPSWRRAARAFRGFLLLLPEPAALTRALSRAMACRQEPQPQGPPPAAGAVASYDYLVIGGGSGGLASARRAAELGARAAVVESHKLGGTCVNVGCVPKKVMWNTAVHSEFMHDHADYGFPSCEGKFNWRVIKEKRDAYVSRLNAIYQNNLTKSHIEIIRGHAAFTSDPKPTIEVSGKKYTAPHILIATGGMPSTPHESQIPGASLGITSDGFFQLEELPGRSVIVGAGYIAVEMAGILSALGSKTSLMIRHDKVLRSFDSMISTNCTEELENAGVEVLKFSQVKEVKKTLSGLEVSMVTAVPGRLPVMTMIPDVDCLLWAIGRVPNTKDLSLNKLGIQTDDKGHIIVDEFQNTNVKGIYAVGDVCGKALLTPVAIAAGRKLAHRLFEYKEDSKLDYNNIPTVVFSHPPIGTVGLTEDEAIHKYGIENVKTYSTSFTPMYHAVTKRKTKCVMKMVCANKEEKVVGIHMQGLGCDEMLQGFAVAVKMGATKADFDNTVAIHPTSSEELVTLR [GSR] | 0.127 | 58.8 | 59.7 | -0.09 | -1.7 | -2.29
7 | MALLSEGLDEVPAACLSPCGPPNPTELFSESRRLALEELVAGGPEAFAAFLRRERLARFLNPDEVHAILRAAERPGEEGAAAAAAAEDSFGSSHDCSSGTYFPEQSDLEPPLLELGWPAFYQGAYRGATRVETHFQPRGAGEGGPYGCKDALRQQLRSAREVIAVVMDVFTDIDIFRDLQEICRKQGVAVYILLDQALLSQFLDMCMDLKVHPEQEKLMTVRTITGNIYYARSGTKIIGKVHEKFTLIDGIRVATGSYSFTWTDGKLNSSNLVILSGQVVEHFDLEFRILYAQSKPISPKLLSHFQSSNKFDHLTNRKPQSKELTLGNLLRMRLARLSSTPRKADLDPEMPAEGKAERKPHDCESSTVSEEDYFSSHRDELQSRKAIDAATQTEPGEEMPGLSVSEVGTQTSITTACAGTQTAVITRIASSQTTIWSRSTTTQTDMDENILFPRGTQSTEGSPVSKMSVSRSSSLKSSSSVSSQGSVASSTGSPASIRTTDFHNPGYPKYLGTPHLELYLSDSLRNLNKERQFHFAGIRSRLNHMLAMLSRRTLFTENHLGLHSGNFSRVNLLAVRDVALYPSYQ [FAM83D] | -0.213 | 49.8 | 49.4 | -0.133 | 0.13 | -0.391
8 | MALLVLGLVSCTFFLAVNGLYSSSDDVIELTPSNFNREVIQSDSLWLVEFYAPWCGHCQRLTPEWKKAATALKDVVKVGAVDADKHHSLGGQYGVQGFPTIKIFGSNKNRPEDYQGGRTGEAIVDAALSALRQLVKDRLGGRSGGYSSGKQGRSDSSSKKDVIELTDDSFDKNVLDSEDVWMVEFYAPWCGHCKNLEPEWAAAASEVKEQTKGKVKLAAVDATVNQVLASRYGIRGFPTIKIFQKGESPVDYDGGRTRSDIVSRALDLFSDNAPPPELLEIINEDIAKRTCEEHQLCVVAVLPHILDTGAAGRNSYLEVLLKLADKYKKKMWGWLWTEAGAQSELETALGIGGFGYPAMAAINARKMKFALLKGSFSEQGINEFLRELSFGRGSTAPVGGGAFPTIVEREPWDGRDGELPVEDDIDLSDVELDDLGKDEL [PDIA6] | 0.44 | 55.1 | 56.2 | -0.1 | 4.84 | 4.76
9 | MALNKNHSEGGGVIVNNTESILMSYDHVELTFNDMKNVPEAFKGTKKGTVYLTPYRVIFLSKGKDAMQSFMMPFYLMKDCEIKQPVFGANYIKGTVKAEAGGGWEGSASYKLTFTAGGAIEFGQRMLQVASQASRGEVPSGAYGYSYMPSGAYVYPPPVANGMYPCPPGYPYPPPPPEFYPGPPMMDGAMGYVQPPPPPYPGPMEPPVSGPDVPSTPAAEAKAAEAAASAYYNPGNPHNVYMPTSQPPPPPYYPPEDKKTQ [WBP2] | 0.283 | 54.1 | 54.5 | -0.0665 | 0.182 | -1.41
10 | MALPIIVKWGGQEYSVTTLSEDDTVLDLKQFLKTLTGVLPERQKLLGLKVKGKPAENDVKLGALKLKPNTKIMMMGTREESLEDVLGPPPDNDDVVNDFDIEDEVVEVENREENLLKISRRVKEYKVEILNPPREGKKLLVLDVDYTLFDHRSCAETGVELMRPYLHEFLTSAYEDYDIVIWSATNMKWIEAKMKELGVSTNANYKITFMLDSAAMITVHTPRRGLIDVKPLGVIWGKFSEFYSKKNTIMFDDIGRNFLMNPQNGLKIRPFMKAHLNRDKDKELLKLTQYLKEIAKLDDFLDLNHKYWERYLSKKQGQ [UBLCP1] | 0.159 | 49.5 | 50 | -0.142 | 0.941 | 2.39
11 | MALQGISVVELSGLAPGPFCAMVLADFGARVVRVDRPGSRYDVSRLGRGKRSLVLDLKQPRGAAVLRRLCKRSDVLLEPFRRGVMEKLQLGPEILQRENPRLIYARLSGFGQSGSFCRLAGHDINYLALSGVLSKIGRSGENPYAPLNLLADFAGGGLMCALGIIMALFDRTRTGKGQVIDANMVEGTAYLSSFLWKTQKLSLWEAPRGQNMLDGGAPFYTTYRTADGEFMAVGAIEPQFYELLIKGLGLKSDELPNQMSMDDWPEMKKKFADVFAEKTKAEWCQIFDGTDACVTPVLTFEEVVHHDHNKERGSFITSEEQDVSPRPAPLLLNTPAIPSFKRDPFIGEHTEEILEEFGFSREEIYQLNSDKIIESNKVKASL [AMACR] | 0.155 | 52.1 | 52.5 | -0.0545 | 0.0452 | 0.6
